In article PMC11401910 (2024) one finds Ki and Kd data, which are given here for three molecules.

The target in one test is T1, OmpF (Escherichia coli, UniProt P02931).
T1 chain: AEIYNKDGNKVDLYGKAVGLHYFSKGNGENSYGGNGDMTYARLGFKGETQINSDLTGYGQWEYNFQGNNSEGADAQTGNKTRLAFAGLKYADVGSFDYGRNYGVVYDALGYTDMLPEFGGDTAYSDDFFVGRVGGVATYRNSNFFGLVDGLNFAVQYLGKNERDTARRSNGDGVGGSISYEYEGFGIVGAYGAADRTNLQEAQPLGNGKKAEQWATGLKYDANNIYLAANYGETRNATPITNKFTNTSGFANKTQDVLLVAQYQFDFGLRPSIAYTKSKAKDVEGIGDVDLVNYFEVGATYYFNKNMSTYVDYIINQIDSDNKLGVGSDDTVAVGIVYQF

Test [1] deals with T2, tOmpA transmembrane domain (Escherichia coli, UniProt P0A910).
T2 chain: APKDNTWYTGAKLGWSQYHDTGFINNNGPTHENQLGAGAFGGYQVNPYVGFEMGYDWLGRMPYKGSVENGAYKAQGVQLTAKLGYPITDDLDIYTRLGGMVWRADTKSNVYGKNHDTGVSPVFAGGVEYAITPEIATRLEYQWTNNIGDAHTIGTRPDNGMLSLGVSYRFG

For a further test, the target named is SurA-core (E. coli, UniProt P0ABZ6 21-428, deleting codons for residues 172–389). Nature of the test: MST; apparent Kd, Hill fit, 0.8 M urea.
The target of test [2] is T3, SurA-WT (E. coli, UniProt P0ABZ6 21-428).
T3 chain: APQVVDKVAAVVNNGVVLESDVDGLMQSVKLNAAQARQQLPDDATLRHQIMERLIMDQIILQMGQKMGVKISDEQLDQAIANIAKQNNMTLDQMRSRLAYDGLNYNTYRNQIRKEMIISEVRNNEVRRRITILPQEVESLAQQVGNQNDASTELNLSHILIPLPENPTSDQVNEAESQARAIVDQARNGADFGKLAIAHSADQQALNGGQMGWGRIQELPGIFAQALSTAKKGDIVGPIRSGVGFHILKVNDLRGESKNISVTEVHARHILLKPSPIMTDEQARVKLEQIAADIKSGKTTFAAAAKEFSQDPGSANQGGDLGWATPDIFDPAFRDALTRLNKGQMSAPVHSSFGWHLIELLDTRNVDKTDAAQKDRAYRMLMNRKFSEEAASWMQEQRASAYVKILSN
Nature of the test: MST; apparent Kd, Hill fit, 0.8 M urea.

Test [3] has as its target T3, SurA-WT. Nature of the test: ITC. (Isothermal titration calorimetry measures the heat released or taken up as one component is titrated into another.)

B1: SurA (protein)
chain: T3 chain
In the test with OmpF, B1 displayed a Ki of 5.2 µM. This molecule also showed a Kd in test [1] of 3.7 µM.

B2: Cys-OmpX labelled with Alexa Fluor 488 (natural protein)
chain: MGSCATSTVTGGYAQSDAQGQMNKMGGFNLKYRYEEDNSPLGVIGSFTYTEKSRTASSGDYNKNQYYGITAGPAYRINDWASIYGVVGVGYGKFQTTEYPTYKHDTSDYGFSYGAGLQFNPMENVALDFSYEQSRIRSVDVGTWIAGVGYRF
modifications: Alexa Fluor 488 on the N-terminal Cys
With B2, the Kd in the test with SurA-core was determined as 5.1 µM; in the test with SurA-WT [2], 1.3 µM.
For WEYIPNV [WEYIPNV peptide], in the test with SurA-WT [3], the Kd amounted to 5.4 µM.

One may read the Ki as the dissociation constant of the complex between target and ligand, obtained from inhibition or displacement. Read a low Ki as tighter binding.
